Values of other authors in publication PMC10967246.
Read-outs that look alike come from different tables or passages of the source.

Assays:
[1] = biological target: GluTR (Arabidopsis thaliana) (UniProt P42804); test: MST
[2] = biological target: GluTR (Arabidopsis thaliana) (UniProt P42804)

Chain of GluTR (Arabidopsis thaliana) (P42804 62-543): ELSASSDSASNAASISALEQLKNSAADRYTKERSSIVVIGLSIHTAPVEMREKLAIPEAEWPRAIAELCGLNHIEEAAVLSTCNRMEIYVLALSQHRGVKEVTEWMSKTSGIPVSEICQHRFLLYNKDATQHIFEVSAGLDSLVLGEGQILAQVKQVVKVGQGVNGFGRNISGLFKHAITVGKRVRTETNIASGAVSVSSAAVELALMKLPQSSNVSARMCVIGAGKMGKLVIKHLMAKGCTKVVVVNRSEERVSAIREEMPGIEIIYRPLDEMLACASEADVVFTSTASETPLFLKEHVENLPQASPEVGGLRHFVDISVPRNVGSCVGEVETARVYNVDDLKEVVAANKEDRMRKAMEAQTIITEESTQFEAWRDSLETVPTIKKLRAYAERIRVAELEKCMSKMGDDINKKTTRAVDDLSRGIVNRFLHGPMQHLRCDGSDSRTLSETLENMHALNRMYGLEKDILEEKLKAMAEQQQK
Chain of FLU TPR domain (Q940U6 203-316): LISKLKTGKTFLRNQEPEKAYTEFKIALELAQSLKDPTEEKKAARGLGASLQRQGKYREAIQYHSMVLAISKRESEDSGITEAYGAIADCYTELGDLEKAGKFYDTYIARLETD
Chain of GBP (Q9LU39 43-317): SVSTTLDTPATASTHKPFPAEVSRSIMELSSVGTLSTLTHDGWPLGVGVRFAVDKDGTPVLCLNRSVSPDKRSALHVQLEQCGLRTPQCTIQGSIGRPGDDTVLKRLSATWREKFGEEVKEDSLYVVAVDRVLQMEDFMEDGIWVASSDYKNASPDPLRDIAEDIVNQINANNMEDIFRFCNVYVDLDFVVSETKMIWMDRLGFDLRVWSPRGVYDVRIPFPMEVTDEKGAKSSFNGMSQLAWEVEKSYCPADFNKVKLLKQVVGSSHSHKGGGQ

Substance	Kd [1] [nM]	Kd [2] [nM]
GBP (from UniProt Q9LU39)	42	
FLU TPR domain (from UniProt Q940U6)		475
